Measured values published in patent US20220177587A1, “METHODS AND USES OF VARIANT CD80 FUSION PROTEINS AND RELATED CONSTRUCTS” (Alpine Immune Sciences, Inc., priority 2018, published 2022).

Experiments:
CD28 [1] = biological target: T1, CD28 (Homo sapiens, UniProt P10747); test: Jurkat/IL2 + CHO/OKT3 +/- PD-L1 reporter assay: PD-L1-dependent CD28 costimulation; assay type: cell-based; design: host or cells: Jurkat cells expressing an IL-2-luciferase reporter; settings: Table E22; Jurkat/IL2 + CHO/OKT3/PD-L1; CD80 Conc 5.0 nM
Experimental: Jurkat cells were then plated at 50 μL/well for a total of 100,000 cells per well.
To each well, 25 μL of test protein was added to the Jurkat cells. […] The Jurkat cells with test or control proteins were incubated for 15 minutes at room temperature. CHO-derived artificial antigen presenting cells (aAPC) displaying transduced cell surface anti-CD3 single chain Fv (OKT3) (i.e., no PD-L1), or OKT3 and PD-L1 (i.e., +PD-L1), were brought to 0.8×10^6 cells/mL, and 25 μL of cells were added to each well, bringing the final volume of each well to 100 μL. […] Jurkat cells and CHO cells were incubated for 5 hours at 37 degrees Celsius in a humidified 5% CO2 incubation chamber. Plates were then removed from the incubator and acclimated to room temperature for 15 minutes. 100 μL of a cell lysis and luciferase substrate solution (BioGlo luciferase reagent, Promega) were added to each well and the plates were incubated on an orbital shaker for 10 minutes. Luminescence was measured with a 1 second per well integration time using a BioTek Cytation luminometer, and a relative luminescence value (RLU) was determined for each test sample.

huCTLA4 = huCTLA4 (Homo sapiens, UniProt P16410); test: Flow binding to CHO cells stably expressing CTLA4; design: huCTLA4 and huPD-L1, full-length mammalian surface expression constructs were generated; expressed in transfected cells; host or cells: CHO cells, lentiviral transduction, sorted to >98% purity; settings: CHO cells stably expressing CTLA4, 33.3 nM
Sequence of huCTLA4 (P16410 36-223): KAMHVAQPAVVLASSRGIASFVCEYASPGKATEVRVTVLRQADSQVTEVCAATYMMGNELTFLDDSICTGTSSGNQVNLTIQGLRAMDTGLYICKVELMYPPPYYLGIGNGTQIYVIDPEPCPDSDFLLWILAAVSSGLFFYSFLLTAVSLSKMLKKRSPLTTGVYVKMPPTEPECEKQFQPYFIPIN
Experimental: (§1) Binding of selected immunomodulatory fusion proteins to cognate binding partners was assessed. […] Cells were sorted in a Bio-Rad S3 Cell Sorter (Bio-Rad Corp., USA) to >98% purity. Jurkat/IL2 reporter cells, which endogenously express CD28, were used to detect binding to CD28.
(§2) For staining and analysis by flow cytometry, 100,000 cells of appropriate transfected cells were plated in 96-well round bottom plates. Cells were spun down and resuspended in staining buffer (phosphate buffered saline (PBS), 1% bovine serum albumin (BSA), and 0.1% sodium azide) for 20 minutes to block non-specific binding. […] Primary staining was performed on ice for 45 minutes, before washing cells in staining buffer twice. Phycoerythrin (PE)-conjugated anti-human Fc (Jackson ImmunoResearch, USA) was diluted 1:150, added to cells and incubated another 30 minutes on ice. Cells were then washed twice with 150 μL/well stain buffer, fixed in 2% formaldehyde/PBS, and analyzed on Intellicyt flow cytometer (Intellicyt Corp., USA). PE Mean Fluorescence Intensity (MFI) was calculated for each cell type with FlowJo Version 10 software (FlowJo LLC, USA).
(§3) Binding assays were carried out to assess the specificity and affinity of multivalent proteins to cell-expressed CTLA-4, CD28, and PD-L1 counter structures.
(§4) The EC50 for binding also was determined.

huPD-L1 = huPD-L1 (Homo sapiens, UniProt Q9NZQ7); test: Flow binding to CHO cells stably expressing PD-L1; design: huCTLA4 and huPD-L1, full-length mammalian surface expression constructs were generated; expressed in transfected cells; host or cells: CHO cells, lentiviral transduction, sorted to >98% purity
Sequence of huPD-L1 (Q9NZQ7 19-290): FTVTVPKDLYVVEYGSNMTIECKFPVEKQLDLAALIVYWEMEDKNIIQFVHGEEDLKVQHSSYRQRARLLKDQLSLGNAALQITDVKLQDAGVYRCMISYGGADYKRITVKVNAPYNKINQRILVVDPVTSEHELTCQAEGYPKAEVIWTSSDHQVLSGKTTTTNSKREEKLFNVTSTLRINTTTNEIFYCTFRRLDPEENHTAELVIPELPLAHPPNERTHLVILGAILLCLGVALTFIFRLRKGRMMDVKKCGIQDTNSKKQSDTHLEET
Experimental: as §1, §2, §3, §4

CD28 [2] = biological target: T1, CD28; test: Flow binding to Jurkat/IL2 reporter cells (CD28); design: host or cells: Jurkat cells expressing an IL-2-luciferase reporter
Experimental: as §1, §2, §3, §4

[3] = Table E20, CHO cells stably expressing PD-L1, 33.3 nM
[4] = Table E20, Jurkats (CD28), 33.3 nM
[5] = Table E10, 33.3 nM, Jurkats (CD28)
[6] = Table E10, 33.3 nM, CHO cells stably expressing PD-L1
[7] = Table E25, linker variants, 33.3 nM, Jurkats (CD28)
[8] = Table E25, linker variants, 33.3 nM, CHO cells stably expressing PD-L1

Row | Substance | Relative Luciferase Units (RLU), CD80 Conc 5.0 nM (CD28 [1]) | CTLA4 MFI at 33.3 nM (huCTLA4; Table E20) | PD-L1 MFI at 33.3 nM (huPD-L1; [3]) | CD28 MFI at 33.3 nM (CD28 [2]; [4]) | other results
1 | H18Y/A26E/E35D/M47L/V68M | 895 RLU | 20015 | 24683 | – | –
2 | H18Y/A26E/E35D/M47L/V68M/A71G | 976 RLU | 25404 | 28546 | – | –
3 | H18Y/A26E/M47L/A71G/D90G | 1036 RLU | 25420 | – | 2047 | –
4 | H18Y/A26E/M47L/V68M/A71G | – | 21742 | 29730 | 544 | –
5 | H18Y/A26N/E35D/M47F/V68M/A71G/D90G | – | – | – | – | CD28 MFI at 33.3 nM (CD28 [2]; Table E23, CD80 IgV-Fc (inert) at 33.3 nM, Jurkat (CD28)): 82.2; PD-L1 MFI at 33.3 nM (huPD-L1; Table E23, CD80 IgV-Fc (inert) at 33.3 nM, CHO cells stably expressing PD-L1): 26510
6 | H18Y/E35D/M47L/A71G/D90G | 851 RLU | 22983 | 13327 | – | –
7 | H18Y/E35D/M47L/V68M/A71G/D90G | 1028 RLU | 19892 | 29944 | – | –
8 | H18Y/E35D/M47L/V68M/D90G | 852 RLU | – | 27410 | 3389 | –
9 | H18Y/E35D/V68M/A71G/D90G | 815 RLU | 24335 | – | 2724 | –
10 | H18Y/M47L/V68M/A71G/D90G | 986 RLU | 22235 | – | – | –
11 | Inert Fc | – | – | – | – | CD28 MFI at 33.3 nM (CD28 [2]; [5]): 23; CTLA4 MFI at 33.3 nM (huCTLA4; Table E10): 65.7; PD-L1 MFI at 33.3 nM (huPD-L1; [6]): 41
12 | Inert Fc (control) | – | – | – | – | CD28 MFI at 33.3 nM (CD28 [2]; [7]): 20; CTLA4 MFI at 33.3 nM (huCTLA4; Table E25, linker variants): 40; PD-L1 MFI at 33.3 nM (huPD-L1; [8]): 58
13 | WT CD80 ECD-Fc (Abcam) | – | – | – | – | CD28 MFI at 33.3 nM (CD28 [2]; Table E19, Jurkats (CD28), 33.3 nM): 709; PD-L1 MFI at 33.3 nM (huPD-L1; Table E19, CHO cells stably expressing PD-L1, 33.3 nM): 128
14 | WT CD80 ECD-Fc H22.6 | – | – | – | – | CD28 MFI at 33.3 nM (CD28 [2]; [5]): 43; PD-L1 MFI at 33.3 nM (huPD-L1; [6]): 46.3
15 | WT CD80 ECD-Fc: wild-type CD80 ECD (SEQ ID NO:2)-Fc; R&D Systems where stated [reference compound] | – | – | 6377 | 42.3 | CD28 MFI at 33.3 nM (CD28 [2]; Table E3, 33.3 nM): 7627; CD28 MFI at 33.3 nM (CD28 [2]; Table E4, 33.3 nM, Jurkat cells (CD28)): 18035; CD28 MFI at 33.3 nM (CD28 [2]; Table E11, Jurkats (CD28), 33.3 nM): 31; CD28 MFI at 33.3 nM (CD28 [2]; Table E14, Jurkats (CD28), 33.3 nM): 30; CD28 MFI at 33.3 nM (CD28 [2]; Table E16, consensus variants, Jurkats (CD28), 33.3 nM): 46; CD28 MFI at 33.3 nM (CD28 [2]; [7]): 37; EC50 (CD28 [2]; Table E31, flow binding to Jurkats (CD28), read-out: CD28 EC50): 164 nM; PD-L1 MFI at 33.3 nM (huPD-L1; Table E3, 33.3 nM): 7943; PD-L1 MFI at 33.3 nM (huPD-L1; Table E4, 33.3 nM, CHO cells stably expressing PD-L1): 11871; PD-L1 MFI at 33.3 nM (huPD-L1; Table E11, CHO cells stably expressing PD-L1, 33.3 nM): 52; PD-L1 MFI at 33.3 nM (huPD-L1; Table E14, CHO cells stably expressing PD-L1, 33.3 nM): 68; PD-L1 MFI at 33.3 nM (huPD-L1; Table E16, consensus variants, CHO cells stably expressing PD-L1, 33.3 nM): 58; PD-L1 MFI at 33.3 nM (huPD-L1; [8]): 35; EC50 (huPD-L1; Table E31, flow binding to CHO cells stably expressing PD-L1): 31.2 nM
